The source of these data is paper PMC8552062, “Contributions of UDP-Glucuronosyltransferases to Human Hepatic and Intestinal Metabolism of Ticagrelor and Inhibition of UGTs and Cytochrome P450 Enzymes by Ticagrelor and its Glucuronidated Metabolite” (Frontiers in Pharmacology, 2021).

Data set [1] relates to ticagrelor glucuronidation in pooled HLM. The experiment in a line: Effects of typical UGT inhibitors on ticagrelor glucuronidation in pooled HLM. It is filed as in vitro ADME, human. As to conditions: 10 μM ticagrelor. The protocol: (§1) Ticagrelor glucuronidation was investigated in an in vitro incubation system by using HLM, HIM, and recombinant human UGTs. The incubation system consisted of enzyme sources (HLM, HIM, or human recombinant UGTs), various concentrations of ticagrelor (dissolved in 50% methanol, 1% v/v, 1, 2, 5, 10, 20, 50, 100, 200, 500 μM of final concentration), alamethicin (50 μg/mg protein), 5 mM MgCl2, 100 mM tris-HCL buffer (pH 7.4), and 5 mM UDPGA in a total volume of 100 μl. Alamethicin is a pore-forming polypeptide used to activate UGTs in HLM and HIM ([Fisher et al., 2000]). Preliminary studies were conducted to determine the optimal protein concentrations and incubation times. Linear conditions of ticagrelor-O-Glu formation from ticagrelor, i.e., HLM, 0.2 mg of protein/ml and 60 min, HIM, 0.2 mg of protein/ml and 60 min, and recombinant human UGTs, 0.2 mg of protein/ml and 60 min were selected. The incubation mixture without UDPGA was placed on ice for 15 min to activate UGT by alamethicin. After pre-incubation for 5 min at 37°C, the reactions were started by the addition of UDPGA. After another 60 min of incubation at 37°C, the reaction was terminated by adding 100 μl of acetonitrile containing internal standard (diazepam). The mixture vortexed for 2 min and then centrifuged at 14,000 rpm for 10 min at 4°C. The resulting supernatant was injected into a liquid chromatography tandem mass spectrometry (LC-MS/MS, Applied Biosystems/MDS Sciex, Foster City, CA) system for the detection of ticagrelor-O-Glu.
(§2) The final concentrations of UGT inhibitors for each UGT isoform were set in accordance with previous publications as follows: atazanavir, 1 μM, UGT1A1; celastrol, 5 μM, UGT1A3; hecogenin, 1 μM, UGT1A4; niflumic acid, 1 μM, UGT1A9; and mefenamic acid, 20 μM, UGT2B7 ([Lee et al., 2019]). The assays were performed as described above, with 10 μM ticagrelor. The percentage of remaining glucuronidation activity was expressed by the following equation: Remaining activity(%)=Concentration of ticagrelor-O-Glu with inhibitor /Concentration of ticagrelor-O-Glu without inhibitor×100.

Data set [2] relates to ticagrelor glucuronidation in pooled HIM. Description: Effects of typical UGT inhibitors on ticagrelor glucuronidation in pooled HIM. It is filed as in vitro ADME, human. Particulars: 10 μM ticagrelor. How it is done:
as §1, §2

Substrate in data set [3]: CCCSc1nc(N[C@@H]2C[C@H]2c2ccc(F)c(F)c2)c2nnn([C@@H]3C[C@H](OCCO)[C@@H](O)[C@H]3O)c2n1
The experiment in a line: Ticagrelor glucuronidation by recombinant human UGT1A8. Type of data set: in vitro ADME. Particulars: other: recombinant UGT1A8, Michaelis-Menten kinetics; pH 7.4; 37.0 °C. The protocol:
as §1
(§3) Kinetic analyses were performed using the mean values of triplicate determinations with either pooled HLM, HIM, or recombinant human UGTs. All data were analyzed by nonlinear regression analysis using the GraphPad Prism 6 (GraphPad Software Inc., CA, United States). Michaelis-Menten kinetics (Eq. 1) or substrate inhibition kinetics (Eq. 2) ([Houston and Kenworthy, 2000]) were tested to determine the optimal model for describing the data. […] Intrinsic clearance (CLint) was calculated by dividing Vmax by Km.

Substrate in data set [4]: CCCSc1nc(N[C@@H]2C[C@H]2c2ccc(F)c(F)c2)c2nnn([C@@H]3C[C@H](OCCO)[C@@H](O)[C@H]3O)c2n1
Description: Ticagrelor glucuronidation by recombinant human UGT2B7. As to conditions: other: recombinant UGT2B7, Michaelis-Menten kinetics; pH 7.4; 37.0 °C. Type of data set: in vitro ADME. The protocol:
as §1, §3

Substrate in data set [5]: CCCSc1nc(N[C@@H]2C[C@H]2c2ccc(F)c(F)c2)c2nnn([C@@H]3C[C@H](OCCO)[C@@H](O)[C@H]3O)c2n1
The experiment in a line: Ticagrelor glucuronidation by recombinant human UGT1A9. Type of data set: in vitro ADME. As to conditions: other: recombinant UGT1A9, Michaelis-Menten kinetics; pH 7.4; 37.0 °C. The protocol: as §1, §3

Substrate in data set [6]: CCCSc1nc(N[C@@H]2C[C@H]2c2ccc(F)c(F)c2)c2nnn([C@@H]3C[C@H](OCCO)[C@@H](O)[C@H]3O)c2n1
Description: Ticagrelor glucuronidation by recombinant human UGT1A1. It is filed as in vitro ADME. As to conditions: other: recombinant UGT1A1, Michaelis-Menten kinetics; pH 7.4; 37.0 °C. How it is done:
as §1, §3

Substrate in data set [7]: CCCSc1nc(N[C@@H]2C[C@H]2c2ccc(F)c(F)c2)c2nnn([C@@H]3C[C@H](OCCO)[C@@H](O)[C@H]3O)c2n1
The experiment in a line: Ticagrelor glucuronidation by recombinant human UGT1A7. Type of data set: in vitro ADME. Particulars: other: recombinant UGT1A7, Michaelis-Menten kinetics; pH 7.4; 37.0 °C. The protocol: as §1, §3

For the molecule `COC(=O)N[C@H](C(=O)N[C@@H](Cc1ccccc1)[C@@H](O)CN(Cc1ccc(-c2ccccn2)cc1)NC(=O)[C@@H](NC(=O)OC)C(C)(C)C)C(C)(C)C` [atazanavir], the results for the “inhibition of ticagrelor-O-Glu formation” value in data set [1] (inhibitor 1 μM) and in data set [2] (inhibitor 1 μM) were 6.66% and 6.08%, respectively.

In the case of `CC1=C(O)C(=O)C=C2C1=CC=C1[C@@]2(C)CC[C@@]2(C)[C@@H]3C[C@](C)(C(=O)O)CC[C@]3(C)CC[C@]12C` [celastrol], the “inhibition of ticagrelor-O-Glu formation” value is recorded as 19.35% in data set [1] (inhibitor 5 μM) and 25.02% in data set [2] (inhibitor 5 μM).

Consider `Cc1cccc(Nc2ccccc2C(=O)O)c1C` [mefenamic acid], for which the “inhibition of ticagrelor-O-Glu formation” value is listed as 42.95% in data set [1] (inhibitor 20 μM) and 19.24% in data set [2] (inhibitor 20 μM).

As to `O=C(O)c1cccnc1Nc1cccc(C(F)(F)F)c1` [niflumic acid], the “inhibition of ticagrelor-O-Glu formation” value in data set [1] (inhibitor 1 μM) worked out at 35.48%; in data set [2] (inhibitor 1 μM), 17.45%.

For the molecule hecogenin, the “inhibition of ticagrelor-O-Glu formation” value in data set [1] (inhibitor 1 μM) is 9.29%; in data set [2] (inhibitor 1 μM) it was 16.75%.

B1: recombinant human UGT1A8 (Homo sapiens) (protein)
chain: GKLLVVPMDGSHWFTMQSVVEKLILRGHEVVVVMPEVSWQLGKSLNCTVKTYSTSYTLEDLDREFMDFADAQWKAQVRSLFSLFLSSSNGFFNLFFSHCRSLFNDRKLVEYLKESSFDAVFLDPFDACGLIVAKYFSLPSVVFARGIACHYLEEGAQCPAPLSYVPRILLGFSDAMTFKERVRNHIMHLEEHLFCQYFSKNALEIASEILQTPVTAYDLYSHTSIWLLRTDFVLDYPKPVMPNMIFIGGINCHQGKPLPMEFEAYINASGEHGIVVFSLGSMVSEIPEKKAMAIADALGKIPQTVLWRYTGTRPSNLANNTILVKWLPQNDLLGHPMTRAFITHAGSHGVYESICNGVPMVMMPLFGDQMDNAKRMETKGAGVTLNVLEMTSEDLENALKAVINDKSYKENIMRLSSLHKDRPVEPLDLAVFWVEFVMRHKGAPHLRPAAHDLTWYQYHSLDVIGFLLAVVLTVAFITFKCCAYGYRKCLGKKGRVKKAHKSKTH
notes: purchased BD Gentest; host or cells: baculovirus-infected insect cells
For orientation: Km means the substrate concentration at which the rate is half of its maximum. What is called Vmax is the rate approached at saturating substrate. For B1, in data set [3], the Michaelis-Menten constant (Km) was 6.63 µM, the Vmax turned out to be 9e-08 µmol/min/mg and the Vmax/Km was determined as 0.01 µL/min/mg.

B2: recombinant human UGT2B7 (Homo sapiens) (protein)
chain: GKVLVWAAEYSHWMNIKTILDELIQRGHEVTVLASSASILFDPNNSSALKIEIYPTSLTKTELENFIMQQIKRWSDLPKDTFWLYFSQVQEIMSIFGDITRKFCKDVVSNKKFMKKVQESRFDVIFADAIFPCSELLAELFNIPFVYSLSFSPGYTFEKHSGGFIFPPSYVPVVMSELTDQMTFMERVKNMIYVLYFDFWFEIFDMKKWDQFYSEVLGRPTTLSETMGKADVWLIRNSWNFQFPYPLLPNVDFVGGLHCKPAKPLPKEMEDFVQSSGENGVVVFSLGSMVSNMTEERANVIASALAQIPQKVLWRFDGNKPDTLGLNTRLYKWIPQNDLLGHPKTRAFITHGGANGIYEAIYHGIPMVGIPLFADQPDNIAHMKARGAAVRVDFNTMSSTDLLNALKRVINDPSYKENVMKLSRIQHDQPVKPLDRAVFWIEFVMRHKGAKHLRVAAHDLTWFQYHSLDVIGFLLVCVATVIFIVTKCCLFCFWKFARKAKKGKND
notes: as for B1
As for B2, in data set [4], the Km is 14.53 µM, the Vmax was determined as 2.3e-07 µmol/min/mg and the Vmax/Km was determined as 0.02 µL/min/mg.

B3: recombinant human UGT1A9 (Homo sapiens) (protein)
chain: GKLLVVPMDGSHWFTMRSVVEKLILRGHEVVVVMPEVSWQLGRSLNCTVKTYSTSYTLEDLDREFKAFAHAQWKAQVRSIYSLLMGSYNDIFDLFFSNCRSLFKDKKLVEYLKESSFDAVFLDPFDNCGLIVAKYFSLPSVVFARGILCHYLEEGAQCPAPLSYVPRILLGFSDAMTFKERVRNHIMHLEEHLLCHRFFKNALEIASEILQTPVTEYDLYSHTSIWLLRTDFVLDYPKPVMPNMIFIGGINCHQGKPLPMEFEAYINASGEHGIVVFSLGSMVSEIPEKKAMAIADALGKIPQTVLWRYTGTRPSNLANNTILVKWLPQNDLLGHPMTRAFITHAGSHGVYESICNGVPMVMMPLFGDQMDNAKRMETKGAGVTLNVLEMTSEDLENALKAVINDKSYKENIMRLSSLHKDRPVEPLDLAVFWVEFVMRHKGAPHLRPAAHDLTWYQYHSLDVIGFLLAVVLTVAFITFKCCAYGYRKCLGKKGRVKKAHKSKTH
notes: as for B1
For B3, in data set [5], the Km stood at 1.60 µM, the Vmax is 9e-07 µmol/min/mg and the Vmax/Km was 0.56 µL/min/mg.

B4: recombinant human UGT1A1 (Homo sapiens) (protein)
chain: HAGKILLIPVDGSHWLSMLGAIQQLQQRGHEIVVLAPDASLYIRDGAFYTLKTYPVPFQREDVKESFVSLGHNVFENDSFLQRVIKTYKKIKKDSAMLLSGCSHLLHNKELMASLAESSFDVMLTDPFLPCSPIVAQYLSLPTVFFLHALPCSLEFEATQCPNPFSYVPRPLSSHSDHMTFLQRVKNMLIAFSQNFLCDVVYSPYATLASEFLQREVTVQDLLSSASVWLFRSDFVKDYPRPIMPNMVFVGGINCLHQNPLSQEFEAYINASGEHGIVVFSLGSMVSEIPEKKAMAIADALGKIPQTVLWRYTGTRPSNLANNTILVKWLPQNDLLGHPMTRAFITHAGSHGVYESICNGVPMVMMPLFGDQMDNAKRMETKGAGVTLNVLEMTSEDLENALKAVINDKSYKENIMRLSSLHKDRPVEPLDLAVFWVEFVMRHKGAPHLRPAAHDLTWYQYHSLDVIGFLLAVVLTVAFITFKCCAYGYRKCLGKKGRVKKAHKSKTH
notes: as for B1
For B4, in data set [6], the Michaelis constant (Km) is 7.57 µM, the Vmax was 2e-07 µmol/min/mg and the Vmax/Km is 0.03 µL/min/mg.

B5: recombinant human UGT1A7 (Homo sapiens) (protein)
chain: GKLLVVPMDGSHWFTMQSVVEKLILRGHEVVVVMPEVSWQLGRSLNCTVKTYSTSYTLEDQDREFMVFADARWTAPLRSAFSLLTSSSNGIFDLFFSNCRSLFNDRKLVEYLKESCFDAVFLDPFDACGLIVAKYFSLPSVVFARGIFCHYLEEGAQCPAPLSYVPRLLLGFSDAMTFKERVWNHIMHLEEHLFCPYFFKNVLEIASEILQTPVTAYDLYSHTSIWLLRTDFVLEYPKPVMPNMIFIGGINCHQGKPVPMEFEAYINASGEHGIVVFSLGSMVSEIPEKKAMAIADALGKIPQTVLWRYTGTRPSNLANNTILVKWLPQNDLLGHPMTRAFITHAGSHGVYESICNGVPMVMMPLFGDQMDNAKRMETKGAGVTLNVLEMTSEDLENALKAVINDKSYKENIMRLSSLHKDRPVEPLDLAVFWVEFVMRHKGAPHLRPAAHDLTWYQYHSLDVIGFLLAVVLTVAFITFKCCAYGYRKCLGKKGRVKKAHKSKTH
notes: as for B1
On to B5, for which, in data set [7], the Michaelis constant (Km) turned out to be 1.68 µM, the Vmax was 1.2e-07 µmol/min/mg and the Vmax/Km worked out at 0.07 µL/min/mg.
